The values below come from patent US20260217835A1 (published 2026).

The target in data set [1] is T1, IgG2 Fc fragment without modification (SEQ ID NO: 103) (Homo sapiens (Human), UniProt P01859 99-324 = IgG part).
T1 construct: Fc fragment co-expressed with a full-length heavy chain and the light chain; the associating unit is one Fc chain; also called WT-IgG2 Fc fragment
Briefly: co-expression of full-length heavy chain, light chain and Fc fragment in Expi293F, affinity purification, SEC peak area ratio.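 Further: purified antibodies analysed by size exclusion chromatography with UV detection at 215 nm, each species given as share of total chromatogram peak area.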

Data set [2] concerns the molecule itself. Described as above.
Data set [3] concerns the molecule itself. The data set can be described thus: SEC peak area ratio; full-length heavy chain, light chain and Fc fragment coexpressed in Expi293F, Protein A purified.

B1: IgG1 full-length heavy chain T350V/L351Y/T366L/K392L/T394W/F405A/Y407V (SEQ ID NO: 60) with light chain SEQ ID NO: 61 (antibody)
heavy: QVQLQESGPGLVRPSQTLSLTCTVSGYSITSDHAWSWVRQPPGRGLEWIGYISYSGITTYNPSLKSRVTMLRDTSKNQFSLRLSSVTAADTAVYYCARSLARTTAMDYWGQGSLVTVSSASTKGPSVFPLAPSSKSTSGGTAALGCLVKDYFPEPVTVSWNSGALTSGVHTFPAVLQSSGLYSLSSVVTVPSSSLGTQTYICNVNHKPSNTKVDKRVEPKSCDKTHTCPPCPAPELLGGPSVFLFPPKPKDTLMISRTPEVTCVVVDVSHEDPEVKFNWYVDGVEVHNAKTKPREEQYNSTYRVVSVLTVLHQDWLNGKEYKCKVSNKALPAPIEKTISKAKGQPREPQVYVYPPSREEMTKNQVSLLCLVKGFYPSDIAVEWESNGQPENNYLTWPPVLDSDGSFALVSKLTVDKSRWQQGNVFSCSVMHEALHNHYTQKSLSLSP
light: not shown
B1: the “Heteromultimer (%)” value in data set [1] amounted to 0%. Further, the “Homo full-length heavy chain (%)” value in data set [2] stood at 85.8%.

B2: IgG1 full-length heavy chain T366W/L368A/Y407V (SEQ ID NO: 26) with light chain SEQ ID NO: 61 (antibody)
heavy: QVQLQESGPGLVRPSQTLSLTCTVSGYSITSDHAWSWVRQPPGRGLEWIGYISYSGITTYNPSLKSRVTMLRDTSKNQFSLRLSSVTAADTAVYYCARSLARTTAMDYWGQGSLVTVSSASTKGPSVFPLAPSSKSTSGGTAALGCLVKDYFPEPVTVSWNSGALTSGVHTFPAVLQSSGLYSLSSVVTVPSSSLGTQTYICNVNHKPSNTKVDKRVEPKSCDKTHTCPPCPAPELLGGPSVFLFPPKPKDTLMISRTPEVTCVVVDVSHEDPEVKFNWYVDGVEVHNAKTKPREEQYNSTYRVVSVLTVLHQDWLNGKEYKCKVSNKALPAPIEKTISKAKGQPREPQVYTLPPSREEMTKNQVSLWCAVKGFYPSDIAVEWESNGQPENNYKTTPPVLDSDGSFFLVSKLTVDKSRWQQGNVFSCSVMHEALHNHYTQKSLSLSP
light: not shown
For the molecule B2, in data set [1], the “Heteromultimer (%)” value is 0%. In addition, in data set [2], the “Homo full-length heavy chain (%)” value worked out at 85.3%.

B3: L234F/L235E/P331S (suppress FcγR binding) Fc fragment with T394W/F405A, SEQ ID NO: 600 (other)
chain: DKTHTCPPCPAPEFEGGPSVFLFPPKPKDTLMISRTPEVTCVVVDVSHEDPEVKFNWYVDGVEVHNAKTKPREEQYNSTYRVVSVLTVLHQDWLNGKEYKCKVSNKALPASIEKTISKAKGQPREPQVYTLPPSREEMTKNQVSLTCLVKGFYPSDIAVEWESNGQPENNYKTWPPVLDSDGSFALYSKLTVDKSRWQQGNVFSCSVMHEALHNHYTQKSLSLSP
As to B3, the “Homo Fc fragment (%)” value in data set [3] came to 37.9%.

B4: L234F/L235E/P331S (suppress FcγR binding) Fc fragment with T366W/L368A/Y407V, SEQ ID NO: 601 (other)
chain: DKTHTCPPCPAPEFEGGPSVFLFPPKPKDTLMISRTPEVTCVVVDVSHEDPEVKFNWYVDGVEVHNAKTKPREEQYNSTYRVVSVLTVLHQDWLNGKEYKCKVSNKALPASIEKTISKAKGQPREPQVYTLPPSREEMTKNQVSLWCAVKGFYPSDIAVEWESNGQPENNYKTTPPVLDSDGSFFLVSKLTVDKSRWQQGNVFSCSVMHEALHNHYTQKSLSLSP
Take B4: in data set [3], the “Homo Fc fragment (%)” value came out at 39.3%.

B5: E345R/E430G/S440Y (promote hexamer formation) Fc fragment, SEQ ID NO: 165 (other)
chain: DKTHTCPPCPAPELLGGPSVFLFPPKPKDTLMISRTPEVTCVVVDVSHEDPEVKFNWYVDGVEVHNAKTKPREEQYNSTYRVVSVLTVLHQDWLNGKEYKCKVSNKALPAPIEKTISKAKGQPRRPQVYTLPPSREEMTKNQVSLTCLVKGFYPSDIAVEWESNGQPENNYKTTPPVLDSDGSFFLYSKLTVDKSRWQQGNVFSCSVMHGALHNHYTQKYLSLSP
notes: No homodimer-promoting modification ('-'); also called Sample No. 360 Fc fragment
Consider B5, for which the “Homo Fc fragment (%)” value in data set [3] worked out at 8.8%.

B6: L234F/L235E/P331S (suppress FcγR binding) Fc fragment with Q347R/K360E/D399V/F405T/K409W, SEQ ID NO: 602 (other)
chain: DKTHTCPPCPAPEFEGGPSVFLFPPKPKDTLMISRTPEVTCVVVDVSHEDPEVKFNWYVDGVEVHNAKTKPREEQYNSTYRVVSVLTVLHQDWLNGKEYKCKVSNKALPASIEKTISKAKGQPREPRVYTLPPSREEMTENQVSLTCLVKGFYPSDIAVEWESNGQPENNYKTTPPVLVSDGSFTLYSWLTVDKSRWQQGNVFSCSVMHEALHNHYTQKSLSLSP
Consider B6, for which, in data set [3], the “Homo Fc fragment (%)” value came out at 38.8%.

B7: L234F/L235E/P331S (suppress FcγR binding) Fc fragment with E356K/K392D/D399K/K439E, SEQ ID NO: 603 (other)
chain: DKTHTCPPCPAPEFEGGPSVFLFPPKPKDTLMISRTPEVTCVVVDVSHEDPEVKFNWYVDGVEVHNAKTKPREEQYNSTYRVVSVLTVLHQDWLNGKEYKCKVSNKALPASIEKTISKAKGQPREPQVYTLPPSRKEMTKNQVSLTCLVKGFYPSDIAVEWESNGQPENNYDTTPPVLKSDGSFFLYSKLTVDKSRWQQGNVFSCSVMHEALHNHYTQESLSLSP
Turning to B7, the “Homo Fc fragment (%)” value in data set [3] is 37.7%.
